The data set can be described thus: soluble on expression in E. coli; label from the status in PepcDB or PDB records.
Regarding “SMVSPREKQQTNSKGSSNFCVKNIKQAEFGRREIEIAEQDMSALISLRKRAQGEKPLAGAKIVGCTHITAQTAVLIETLCALGAQCRWSACNIYSTQNEVAAALAEAGVAVFAWKGESEDDFWWCIDRCVNMDGWQANMILDDGGDLTHWVYKKYPNVFKKIRGIVEESVTGVHRLYQLSKAGKLCVPAMNVNDSVTKQKFDNLYCCRESILDGLKRTTDVMFGGKQVVVCGYGEVGKGCCAALKALGAIVYITEIDPICALQACMDGFRVVKLNEVIRQVDVVITCTGNKNVVTREHLDRMKNSCIVCNMGHSNTEIDVTSLRTPELTWERVRSQVDHVIWPDGKRVVLLAEGRLLNLSCSTVPTFVLSITATTQALALIELYNAPEGRYKQDVYLLPKKMDEYVASLHLPSFDAHLTELADDQAKYLGLNKNGPFKPNYYRY”, the “soluble on expression in E. coli” value is given as “soluble”.
In the case of “SNAGAPLKAVSAFAPPMKTQDFNLYTNEVHAKFDDYDLGMEYARQHNKPVMLDFTGYGCVNCRKMELAVWTDPKVSSIINNDYVLITLYVDNKTPLTEPVKIMENGTERTLRTVGDKWSYLQRVKFGANAQPFYVLIDNEGNPLNKSYAYDEDISKYINFLQTGLENYRKEK”, the “soluble on expression in E. coli” value was “soluble”.
The result for “SNAMAVETLYRSTRDLETTFVDRKLADAHDQMLELAELLTDVLIKNVPGLSEKHAEDASIYMAKNRAVFAAAFKNNATALSELSEPAESEG” reads “soluble”.
“SNAMDFHIRKATNSDAEAIQHVATTSWHHTYQDLIPSDVQDDFLKRFYNVETLHNRISATPFAVLEQADKVIGFANFIELEKGKSELAAFYLLPEVTQRGLGTELLEVGMTLFHVPLPMFVNVEKGNETAIHFYKAKGFVQVEEFTEDFYGYPLETIRFNLNH”: the “soluble on expression in E. coli” value was “soluble”.
The result for “SNAMILVPIDISDKEFTERIISHVESEARIDDAEVHFLTVIPSLPYYASLGMAYTAELPGMDELREGSETQLKEIAKKFSIPEDRMHFHVAEGSPKDKILALAKSLPADLVIIASHRPDITTYLLGSNAAAVVRHAECSVLVVR” reads “soluble”; that for “SNAMIRFQPITTSDVQHYKFMEELLVESFPPEEYRELEHLREYTDRIGNFHNNIIFDDDLPIGFITYWDFDEFYYVEHFATNPALRNGGYGKRTLEHLCEFLKRPIVLEVERPVEEMAKRRINFYQRHGFTLWEKDYYQPPYKEGDDFLPMYLMVHGNLDAEKDYEGIRHKLHTIVYGVKE”, “soluble”.
Next, “SNAMKKGTVLNSEISSVISRLGHTDTLVVCDAGLPIPNSTARIDMALTQGVPSFMQVVDVVTREMQVEAAILATEIKQQNPQLHETLLTHLEQLQQHQGNTIKISYTTHEQFKKLTADSQAVIRSGECSPYANVILCAGVTF”: “soluble”.
For “SNAMLIIETLPLLRQHIRRLRQEGKRVALVPTMGNLHDGHMKLVDEAKARADVVIVSIFVNPMQFDRPDDLVRYPRTLQEDCEKLNKRKVDYVFAPAVEEIYPHGLEGQTYVDVPGLSTMLEGASRPGHFRGVSTIVSKLFNLIQPDIACFGEKDFQQLALIRKMVADMSYDIEIVGVPIIRAKDGLALSSRNAYLTAEQRKIAPGLYNVMNSIAEKLIAGNRELQEIIAIAEQELNEKGFRADDIQIRDADTLLELTETSKRAVILAAAWLGQARLIDNQSVTLAQ”, the “soluble on expression in E. coli” value is reported as “soluble”.
Next, “SNAMSKITFKDIYIDGNKITEDSRKAIYLLPPQPLKYASNTWIYKTMPTMNQWLKDIEVQKKMHLNQSSYHLSFSFPANEKIDEVLLEKIRELGFQIGVLELYVIEAKALKELSRKRDVDIQLVSSNNINDYLHVYDAFARPFGDSYANMVKQHIYSSYNLDDIERLVAYVNHQPVGIVDIIMTDKTIEIDGFGVLEEFQHQGIGSEIQAYVGRMANERPVILVADGKDTAKDMYLRQGYVYQGFKYHILKENI”: “soluble”; “SNAQDVPVTQVMTPRPVVFRVDATMTINEFLDKHKDTPFSRPLVYSEQKDNIIGFVHRLELFKMQQSGSGQKQLGAVMRPIQVVLNNTALPKVFDQMMTHRLQLALVVDEYGTVLGLVTLEDIFEHLVGE”: “soluble”; “SNNWVVSGSLTVSGNPLLANDPHLSLTAPGIWLPIVISSPSYSLAGVTIPGVPLVVIGRNSHVAWGFTNVGSDFTDFYRYQWVDENRYFYKGRIFGVEKSSIEAYVWDPLARSYRVQEISVARTIHGPVIEWQGEKFAVSYTSARPTFEMIFLWLLNKASSVRDALSAQRYFYGPPQNMVVADSAGNIAYSPVGAYPERATLPTIETGYGPIVNTGFLPFDGSAGEGEWRGFKPYSSLPVLFNPPQGFVATANSKPFEDGCWDGLGWDYADRFRTERIYTLLQERSAEEPLDAGDMRDIQLDVEDLGLKTLVSLMVRVASGDGGHVLERYMDMLAEWAENPQMNVDDYKPTLALLASWYFARDFWESLYGSEEHWRFIKLEYAEKALKAYLRGEDWVFNYF”: “not soluble”.
“SPIIPEAARALYYNDGMFEGDIKLRAGRQPARVGAAILGDEYLWSGGVIPYTFAGVSGADQSAILSGMQELEEKTCIRFVPRTTESDYVEIFTSGSGCWSYVGRISGAQQVSLQANGCVYHGTILHALMHAIGFYHEHTRMDRDNYVTINYQNVDPSMTSNFDIDTYSRYVGEDYQYYSIMHYGKYSFSIQWGVLETIVPLQNGIDLTDPYDKAHMLQTDANQINNLYTNECSLR”: the “soluble on expression in E. coli” value is recorded as “soluble”.
Next, “SPLPDTMFCAQQIHIPPELPDILKQFTKAAIRTQPADVLQWSAGYFSALSRGDPLPVKDRIEMPVATQKTDTGLTQGLLKVLHKQCSHKQYVELADLEKKWKNLCLPVEKLRTILELDPCEDKIEWIKFLALGCSSLGRTLNTAMKNVCEILTSDPEGGPARIPFETFAYVYQYLSGLDPELPAVETENYLTSLRLMSESRKNGMIGLSDFFVGKKII”: “soluble”; “SPSAEECGYSDRVRSITLGNSTITTQESANVVVGYGRWPEYLRDDEATAEDQPTQPDVATCRFYTLESVTWEKDSPGWWWKFPDALKDMGLFGQNMYYHYLGRAGYTIHVQCNASKFHQGCLLVVCVPEAEMGCSTVDGTVNEHGLSEGETAKKFSATGTNGTNTVQSIVTNAGMGVGVGNLTIFPHQWINLRTNNCATIVMPYINNVPMDNMFRHHNFTLMIIPFVPLNYSSDFSTYVPITVTVAPMCAEYNGLRLSTALQ”: “soluble”.
Next, “SPSDVLVIENKHLTKEWPSGGQMMVNNLTAKYTSDGRAVLQDLSFSVNAGQRVGLLGRTGAGKSTLLSALLRLLSTEGEIQIDGISWNSVSLQKWRKAFGVIPQKVFVFSGTFRKNLDPYEQWSDEEIWKVTEEVGLKSMIEQFPDKLNFVLVDGGYILSNGHKQLMCLARSILSKAKILLLDEPTAHLDPVTFQIIRKTLKHTFSNCTVILSEHRVEALLECQQFLVIEGCSVKQFDALQKLLTEASLFKQVFGHLDRAKLFTAHRRNSSKRKTRPKISALQEEAEEDLQETRL”: “soluble”.
The result for “SPSSPLRVAVVCSSNQNRSMEAHNILSKRGFSVRSFGTGTHVKLPGPAPDKPNVYDFKTTYDQMYNDLLRKDKELYTQNGILHMLDRNKRIKPRPERFQNCTDLFDLILTCEERVYDQVVEDLNSREQETCQPVHVVNVDIQDNHEEATLGAFLICELCQCVSLSSWVLLGLLIATYKNKIK” reads “soluble”.
With “SQKPCKENEGKPKCSVPKREEKRPYGEFERQQTEGNFRQRLLQSLEEFKEDIDYRHFKDEEMTREGDEMERCLEEIRGLRKKFRALHSNHRHSRDRPYPI”, the “soluble on expression in E. coli” value is recorded as “soluble”.
For “SQYKNISEKIVHIIQQEFDTDLTLESIAGRLHYNPNYLSSIFRKEMKISFSEYLSSYRHHIAKNWLTETTMSVKEISEKLKYKNPQNFIRSFKKLEGITPGKYRELKNHS”, the “soluble on expression in E. coli” value is “soluble”.
Next, “SRRLRTPLQDLTRAATSLAAGNSRIRVPAGGAGPEVATLAHAFNTMADRLEHTEQVRRQMLSDLAHEMGTPLSVLTAYLDGLQDGVVDWNNANHTIMADQLTRLTRLMEDIDYVSRAQEHRIDLDLAEEGLGD”: “not soluble”.
The result for “SRVDKFSKSDIIVSPSILSANFSKLGEQVKAIEQAGCDWIHVDVMDGRFVPNITIGPLVVDSLRPITDLPLDVHLMIVEPDQRVPDFIKAGADIVSVHCEQSSTIHLHRTINQIKSLGAKAGVVLNPGTPLTAIEYVLDAVDLVLIMSVNPGFGGQSFIESQVKKISDLRKICAERGLNPWIEVDGGVGPKNAYKVIEAGANALVAGSAVFGAPDYAEAIKGIKTSKRPE” reads “soluble”; that for “SRVFLDHNALPDTLKVTYDSFCSNGVTHRNQPRGDCDGVQINVPITFQVKVTATECIQEQSFVIRALGFTDIVTVQVLPQCECRCRDQSRDRSLCHGKGFLECGICRCDTGYIGKNCEHH”, “soluble”.
The result for “SSGNHIFKGRAAGIAVNENGKGLITENVIRENQWGGVDIRRGGIPVLRSNLICFGYSDGVVVGDEGKGLIEGNTIYANKGCGVWMMSSSLPHVTSNHVSYNGLYGVAVFSQKDGSSELPRGHRAQENFSEDGDAILWETELEKEDDPLRRPITIALVESNSINHNGASGLYVQSSEALHVITNVIHANGDRGITVAQSSQPTRVANNSISCNRQSGVKVEAQCKVELRGNGIYDNRGHGIITKGDSTIVIENDIIGNRGSGLQLLPRSDTKVIKNRIHSFRAYGIAVRGRAKALVQENIIFQGKTSKTIFQQISNNRECIMQNNKFLVFKKKSDTWR” reads “soluble”.
With “SSNQTPYIGSKISLISKLDIRYEGILYTVDTNDSTIALAKVRSFGTEKRPTANPVAARDDVYEYIIFKASDIKDLIVCDTPKMANIGGGLPYDPAIISVSSRSAPASDGAPAASAGSSRAGTPSRNSPLGQIIQNQRPGRGGYQQNFQANRGYNNYRGGFAGGYNNQRGHNNYGVPRVNHREKLKFESDFDFEKANEKFQEVLVDNLEKLNIEDKAEPEVEEKKDAAFYDKKTSFFDNISCESLEKAEGKTGRPDWKKERETNQETFGHNAVRSLNYRRGFGGRGRGGNRGYGGYNNGYQHQHQHRGGYNGGYRQNNGGYRRGGYAPRDNQGNTAAAAEQ”, the “soluble on expression in E. coli” value is “not soluble”.
Next, “SSRTFTEQLNALLELGCETLGSSFGTLSRVHGDEYVFEAVTAPTTADLEAGRTTSIEDLPNCRHVVEHREPLAIRDVEADAPDLADPEWGIVNYIGAPVVVDGAVYGTFCFYGLEPRTAEFTQWDLTFVRLLSDWAGYELERQRHSEQRDALNTAF”: “not soluble”; “SSSPPEGKLETKAGHPPAVKAGGMRIVQKHPHTGDGKEERDKDDQEWESTSPPKPTVFISGVIARGDKDFPPAAAQVAHQKPHASMDKHVSPRTQHIQQPRK”: “soluble”; “STDDKDVLRDVWFGRIPTCFTLYQDEITEREAEPYYLLLPRVSYLTLVTDKVKKHFQKVMRQEDVSEIWFEYEGTPLKWHYPIGLLFDLLASSSALPWNITVHFKSFPEKDLLHCPSKDAVEAHFMSCMKEADALKHKSQVINEMQKKDHKQLWMGLQNDRFDQFWAINRKLMEYPPEENGFRYIPFRIYQTTTERPFIQKLFRPVAADGQLHTLGDLLREVCPSAVAPEDGEKRSQVMIHGIEPMLETPLQWLSEHLSYPDNFLHISIVPQPTD”: “soluble”.
Regarding “STVSEAYSPPLFSIAPMMGWTDNHYRTLARLITKHAWLYTEMLAAETIVYQEDNLDSFLAFSPDQHPIVLQIGGRNLENLAKATRLANAYAYDEINFNCGCPSPKVSGRGCFGALLMLDPKFVGEAMSVIAANTNAAVTVKCRIGVDDHDSYNELCDFIHIVSSLSPTKHFIIHSRKALLSGLSPSDNRRIPPLKCVQKVFLCPFA”, the “soluble on expression in E. coli” value is “soluble”.

The values are drawn from the DeepSol protein solubility set.
